Measured values published in IntAct's records for PubMed 20080774.

B1: Nuclear factor of activated T-cells 5 (Homo sapiens), O94916-1 (parent)
chain: MPSDFISLLSADLDLESPKSLYSRESVYDLLPKELQLPPSRETSVASMSQTSGGEAGSPPPAVVAADASSAPSSSSMGGACSSFTTSSSPTIYSTSVTDSKAMQVESCSSAVGVSNRGVSEKQLTSNTVQQHPSTPKRHTVLYISPPPEDLLDNSRMSCQDEGCGLESEQSCSMWMEDSPSNFSNMSTSSYNDNTEVPRKSRKRNPKQRPGVKRRDCEESNMDIFDADSAKAPHYVLSQLTTDNKGNSKAGNGTLENQKGTGVKKSPMLCGQYPVKSEGKELKIVVQPETQHRARYLTEGSRGSVKDRTQQGFPTVKLEGHNEPVVLQVFVGNDSGRVKPHGFYQACRVTGRNTTPCKEVDIEGTTVIEVGLDPSNNMTLAVDCVGILKLRNADVEARIGIAGSKKKSTRARLVFRVNIMRKDGSTLTLQTPSSPILCTQPAGVPEILKKSLHSCSVKGEEEVFLIGKNFLKGTKVIFQENVSDENSWKSEAEIDMELFHQNHLIVKVPPYHDQHITLPVSVGIYVVTNAGRSHDVQPFTYTPDPAAAGALNVNVKKEISSPARPCSFEEAMKAMKTTGCNLDKVNIIPNALMTPLIPSSMIKSEDVTPMEVTAEKRSSTIFKTTKSVGSTQQTLENISNIAGNGSFSSPSSSHLPSENEKQQQIQPKAYNPETLTTIQTQDISQPGTFPAVSASSQLPNSDALLQQATQFQTRETQSREILQSDGTVVNLSQLTEASQQQQQSPLQEQAQTLQQQISSNIFPSPNSVSQLQNTIQQLQAGSFTGSTASGSSGSVDLVQQVLEAQQQLSSVLFSAPDGNENVQEQLSADIFQQVSQIQSGVSPGMFSSTEPTVHTRPDNLLPGRAESVHPQSENTLSNQQQQQQQQQQVMESSAAMVMEMQQSICQAAAQIQSELFPSTASANGNLQQSPVYQQTSHMMSALSTNEDMQMQCELFSSPPAVSGNETSTTTTQQVATPGTTMFQTSSSGDGEETGTQAKQIQNSVFQTMVQMQHSGDNQPQVNLFSSTKSMMSVQNSGTQQQGNGLFQQGNEMMSLQSGNFLQQSSHSQAQLFHPQNPIADAQNLSQETQGSLFHSPNPIVHSQTSTTSSEQMQPPMFHSQSTIAVLQGSSVPQDQQSTNIFLSQSPMNNLQTNTVAQEAFFAAPNSISPLQSTSNSEQQAAFQQQAPISHIQTPMLSQEQAQPPQQGLFQPQVALGSLPPNPMPQSQQGTMFQSQHSIVAMQSNSPSQEQQQQQQQQQQQQQQQQQSILFSNQNTMATMASPKQPPPNMIFNPNQNPMANQEQQNQSIFHQQSNMAPMNQEQQPMQFQSQSTVSSLQNPGPTQSESSQTPLFHSSPQIQLVQGSPSSQEQQVTLFLSPASMSALQTSINQQDMQQSPLYSPQNNMPGIQGATSSPQPQATLFHNTAGGTMNQLQNSPGSSQQTSGMFLFGIQNNCSQLLTSGPATLPDQLMAISQPGQPQNEGQPPVTTLLSQQMPENSPLASSINTNQNIEKIDLLVSLQNQGNNLTGSF
partner: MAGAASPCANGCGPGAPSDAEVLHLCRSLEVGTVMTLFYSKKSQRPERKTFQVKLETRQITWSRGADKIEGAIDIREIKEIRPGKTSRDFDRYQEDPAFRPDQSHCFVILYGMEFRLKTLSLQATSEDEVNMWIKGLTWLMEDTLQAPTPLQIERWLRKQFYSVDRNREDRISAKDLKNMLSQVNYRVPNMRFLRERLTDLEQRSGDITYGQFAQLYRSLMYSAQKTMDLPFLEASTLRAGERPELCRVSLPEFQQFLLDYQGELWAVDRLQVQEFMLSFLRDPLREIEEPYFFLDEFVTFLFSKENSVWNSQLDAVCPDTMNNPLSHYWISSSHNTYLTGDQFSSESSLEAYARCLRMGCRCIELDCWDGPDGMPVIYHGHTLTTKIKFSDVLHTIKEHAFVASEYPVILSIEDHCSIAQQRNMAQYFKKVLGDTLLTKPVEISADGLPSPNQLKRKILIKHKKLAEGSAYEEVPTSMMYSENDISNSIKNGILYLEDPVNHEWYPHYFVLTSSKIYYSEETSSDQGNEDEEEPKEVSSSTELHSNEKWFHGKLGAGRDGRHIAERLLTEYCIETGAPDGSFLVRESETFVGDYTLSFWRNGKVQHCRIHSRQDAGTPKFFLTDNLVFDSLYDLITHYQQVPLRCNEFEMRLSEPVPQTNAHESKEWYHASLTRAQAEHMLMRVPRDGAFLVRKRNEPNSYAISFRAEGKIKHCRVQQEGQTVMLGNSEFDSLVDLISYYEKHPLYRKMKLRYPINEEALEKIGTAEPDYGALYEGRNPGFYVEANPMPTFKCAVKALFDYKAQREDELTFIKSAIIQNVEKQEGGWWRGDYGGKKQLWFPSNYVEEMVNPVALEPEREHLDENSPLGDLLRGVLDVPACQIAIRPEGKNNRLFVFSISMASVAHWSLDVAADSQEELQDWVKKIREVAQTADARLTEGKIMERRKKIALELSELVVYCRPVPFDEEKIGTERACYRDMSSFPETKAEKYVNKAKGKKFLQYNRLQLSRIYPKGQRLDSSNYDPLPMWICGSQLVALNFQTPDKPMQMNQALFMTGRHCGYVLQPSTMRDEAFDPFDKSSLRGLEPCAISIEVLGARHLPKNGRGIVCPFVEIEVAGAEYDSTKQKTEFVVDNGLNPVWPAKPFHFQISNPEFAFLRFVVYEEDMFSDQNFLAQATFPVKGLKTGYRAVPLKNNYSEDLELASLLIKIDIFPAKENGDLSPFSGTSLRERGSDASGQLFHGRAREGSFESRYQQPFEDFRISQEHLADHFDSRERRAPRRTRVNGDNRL

Variants of: B1
Conditions: with plcg1_human PLCG1, P19174

| Variant | effect of a mutation on the interaction |
| --- | --- |
| Y143A | decreasing interaction |
